This note sets out measurements from publication PMC11100904, “How short peptides can disassemble ultra-stable tau fibrils extracted from Alzheimer’s disease brain by a strain-relief mechanism” (Research Square, 2024).

The target in the experiment is T1, 15N,13C-labeled tau K18+ (residues Gln244-Glu380 of 4R tau) (UniProt P10636-8 244-380).
T1 construct: Uniformly 15N,13C isotope-labelled for NMR; purified as the unlabeled protein; also called tau K18+ monomer; tau monomers; source: E. coli BL21-Gold, M9 medium with 15NH4Cl and 13C-glucose, purified (boiling, HiTrap SP HP ion exchange, Superdex 75)
Briefly: NMR titration; 1H-15N HSQC, 0.1 mM 15N,13C-labeled tau K18+ in 100 mM KCl, 20 mM NaH2PO4, 1 mM TCEP, 5%/95% D2O/H2O, pH 7.0, without or with 1 mM peptide (10-fold molar excess), 25 °C; chemical shift perturbation; one concentration, changes seen over time (2.5 months at 4 °C for D-TLKIVWI). To be noted: both partners purified.

T1 sequence (P10636 561-697): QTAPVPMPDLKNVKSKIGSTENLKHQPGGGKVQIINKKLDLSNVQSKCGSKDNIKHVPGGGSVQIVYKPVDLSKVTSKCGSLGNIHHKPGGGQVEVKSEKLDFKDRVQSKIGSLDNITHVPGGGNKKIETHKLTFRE

B1: L-TLKIVWI (peptide)
peptide: TLKIVWI
notes: L-enantiomer of the designed peptide D-TLKIVWI; All L-amino acids; also called L-TLKIVWX (X = I); source: synthetic peptide (GenScript, purified to ≥98%)
On to B1, for which the binding result is recorded as “binds”.
